Measurements published in IntAct's records for PubMed 18688256.

Target: T1, il33_human IL33 (UniProt O95760)
T1 sequence: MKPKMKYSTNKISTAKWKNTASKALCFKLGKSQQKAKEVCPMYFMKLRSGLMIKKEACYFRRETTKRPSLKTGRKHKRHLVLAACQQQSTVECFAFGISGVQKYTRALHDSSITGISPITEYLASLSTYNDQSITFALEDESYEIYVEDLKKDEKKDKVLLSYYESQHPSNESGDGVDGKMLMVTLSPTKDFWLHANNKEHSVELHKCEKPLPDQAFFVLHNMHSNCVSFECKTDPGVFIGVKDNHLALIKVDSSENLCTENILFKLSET

Histone H2A type 1 (Homo sapiens) (from UniProt P0C0S8) E92R
effect of a mutation on the interaction: decreasing interaction

Histone H2A type 1 (Homo sapiens) (from UniProt P0C0S8) E93L
effect of a mutation on the interaction: decreasing interaction
